Laboratory results taken from PMC2756588.

T1: Abp1, P15891
T1 sequence (P15891 535-592, looked up): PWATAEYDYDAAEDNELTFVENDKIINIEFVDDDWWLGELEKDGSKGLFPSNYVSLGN

T2: Bzz1-2, P38822
T2 sequence (P38822 568-633, looked up): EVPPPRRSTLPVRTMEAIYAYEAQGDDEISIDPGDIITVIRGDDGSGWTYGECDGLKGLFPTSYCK

T3: Lsb4, P32793
T3 sequence (P32793 402-468, looked up): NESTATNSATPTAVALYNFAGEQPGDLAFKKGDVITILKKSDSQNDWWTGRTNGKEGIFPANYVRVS

T4: Fus1, P11710
T4 sequence (P11710 432-512, looked up): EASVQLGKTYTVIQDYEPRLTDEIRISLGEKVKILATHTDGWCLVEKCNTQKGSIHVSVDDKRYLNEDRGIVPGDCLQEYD

T5: Myo5, Q04439
T5 sequence (Q04439 1072-1160, looked up): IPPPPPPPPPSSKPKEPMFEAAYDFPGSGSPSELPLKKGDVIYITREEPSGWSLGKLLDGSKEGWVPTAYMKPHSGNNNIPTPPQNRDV

T6: Sla1-2, P32790
T6 sequence (P32790 60-140, looked up): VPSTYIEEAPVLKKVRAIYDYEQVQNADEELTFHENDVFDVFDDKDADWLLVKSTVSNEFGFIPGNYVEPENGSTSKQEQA

T7: Bud14, P27637
T7 sequence (P27637 247-328, looked up): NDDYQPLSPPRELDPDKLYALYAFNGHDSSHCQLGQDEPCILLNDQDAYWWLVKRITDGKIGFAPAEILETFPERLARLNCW

T8: Pex13, P80667
T8 sequence (P80667 295-386, looked up): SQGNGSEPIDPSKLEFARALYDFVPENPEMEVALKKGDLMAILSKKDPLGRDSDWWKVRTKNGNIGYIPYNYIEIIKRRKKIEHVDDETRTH

T9: Sla1-3, P32790
T9 sequence (P32790 344-424, looked up): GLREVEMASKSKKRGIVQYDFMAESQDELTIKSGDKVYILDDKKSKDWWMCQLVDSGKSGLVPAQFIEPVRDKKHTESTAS

T10: Bbc1, P47068
T10 sequence (P47068 1-78, looked up): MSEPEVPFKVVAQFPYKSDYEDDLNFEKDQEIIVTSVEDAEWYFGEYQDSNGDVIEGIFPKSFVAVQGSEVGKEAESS

T11: Hse1, P38753
T11 sequence (P38753 208-285, looked up): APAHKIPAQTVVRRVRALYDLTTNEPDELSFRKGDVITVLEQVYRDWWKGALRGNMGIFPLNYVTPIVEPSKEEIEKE

T12: Bzz1-1, P38822
T12 sequence (P38822 478-572, looked up): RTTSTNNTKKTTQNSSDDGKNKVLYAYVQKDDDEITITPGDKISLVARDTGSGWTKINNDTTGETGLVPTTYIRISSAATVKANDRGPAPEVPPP

T13: Nbp2, Q12163
T13 sequence (Q12163 103-180, looked up): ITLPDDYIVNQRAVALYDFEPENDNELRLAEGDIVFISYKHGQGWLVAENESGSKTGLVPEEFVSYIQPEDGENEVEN

T14: Lsb1, P53281
T14 sequence (P53281 45-122, looked up): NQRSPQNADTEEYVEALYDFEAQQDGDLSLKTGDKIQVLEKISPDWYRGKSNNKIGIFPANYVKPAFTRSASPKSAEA

T15: Hof1, Q05080
T15 sequence (Q05080 590-669, looked up): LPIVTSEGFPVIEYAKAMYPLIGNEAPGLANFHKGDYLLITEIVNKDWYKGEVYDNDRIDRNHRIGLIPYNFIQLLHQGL

T16: Lsb3, P43603
T16 sequence (P43603 385-451, looked up): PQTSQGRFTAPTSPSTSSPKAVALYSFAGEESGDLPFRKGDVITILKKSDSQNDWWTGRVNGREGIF

T17: Pin3, Q06449
T17 sequence (Q06449 53-122, looked up): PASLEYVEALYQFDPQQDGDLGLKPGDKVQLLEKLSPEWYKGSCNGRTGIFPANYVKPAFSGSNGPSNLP

T18: Boi1, P38041
T18 sequence (P38041 1-86, looked up): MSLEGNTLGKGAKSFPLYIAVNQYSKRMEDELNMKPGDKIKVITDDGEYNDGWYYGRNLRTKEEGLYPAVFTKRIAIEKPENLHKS

T19: Cdc25, P04821
T19 sequence (P04821 50-136, looked up): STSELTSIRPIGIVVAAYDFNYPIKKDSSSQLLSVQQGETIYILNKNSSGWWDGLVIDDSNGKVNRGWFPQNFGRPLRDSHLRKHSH

T20: Boi2, P39969
T20 sequence (P39969 32-116, looked up): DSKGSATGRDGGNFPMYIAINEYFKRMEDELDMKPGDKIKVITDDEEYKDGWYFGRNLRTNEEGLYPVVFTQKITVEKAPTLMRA

T21: Cyk3, Q07533
T21 sequence (Q07533 1-83, looked up): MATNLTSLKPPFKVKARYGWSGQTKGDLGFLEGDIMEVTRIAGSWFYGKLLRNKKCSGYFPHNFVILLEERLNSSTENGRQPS


Tests used:
Experiment in all cases: SPOT array
Abp1, P15891 = molecular target: T1, Abp1, P15891; settings: median of control spots 935
Bzz1-2, P38822 = molecular target: T2, Bzz1-2, P38822; settings: median of control spots 4538
Lsb4, P32793 = molecular target: T3, Lsb4, P32793; settings: median of control spots 397
Fus1, P11710 = molecular target: T4, Fus1, P11710; settings: median of control spots 1200
GST = settings: median of control spots 978
Myo5, Q04439 = molecular target: T5, Myo5, Q04439; settings: median of control spots 471
Sla1-2, P32790 = molecular target: T6, Sla1-2, P32790; settings: median of control spots 712
Bud14, P27637 = molecular target: T7, Bud14, P27637; settings: median of control spots 956
Pex13, P80667 = molecular target: T8, Pex13, P80667; settings: median of control spots 1341
Sla1-3, P32790 = molecular target: T9, Sla1-3, P32790; settings: median of control spots 5475
Bbc1, P47068 = molecular target: T10, Bbc1, P47068; settings: median of control spots 796
Hse1, P38753 = molecular target: T11, Hse1, P38753; settings: median of control spots 1727
Bzz1-1, P38822 = molecular target: T12, Bzz1-1, P38822; settings: median of control spots 4446
Nbp2, Q12163 = molecular target: T13, Nbp2, Q12163; settings: median of control spots 357
Myo3, P36006 = settings: median of control spots 468
Lsb1, P53281 = molecular target: T14, Lsb1, P53281; settings: median of control spots 388
Hof1, Q05080 = molecular target: T15, Hof1, Q05080; settings: median of control spots 4086
Lsb3, P43603 = molecular target: T16, Lsb3, P43603; settings: median of control spots 406
Pin3, Q06449 = molecular target: T17, Pin3, Q06449; settings: median of control spots 2171
Boi1, P38041 = molecular target: T18, Boi1, P38041; settings: median of control spots 1162
Cdc25, P04821 = molecular target: T19, Cdc25, P04821; settings: median of control spots 969
Rvs167, P39743 = settings: median of control spots 2707
Boi2, P39969 = molecular target: T20, Boi2, P39969; settings: median of control spots 1161
Bem1-2, P29366 = settings: median of control spots 4347
Bem1-1, P29366 = settings: median of control spots 4282
Sho1, P40073 = settings: median of control spots 1148
Cyk3, Q07533 = molecular target: T21, Cyk3, Q07533; settings: median of control spots 1451

Chain of Bem1-2, P29366 (P29366 139-227): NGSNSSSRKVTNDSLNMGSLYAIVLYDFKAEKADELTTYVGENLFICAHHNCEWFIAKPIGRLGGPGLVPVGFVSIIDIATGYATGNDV
Chain of Bem1-1, P29366 (P29366 55-141): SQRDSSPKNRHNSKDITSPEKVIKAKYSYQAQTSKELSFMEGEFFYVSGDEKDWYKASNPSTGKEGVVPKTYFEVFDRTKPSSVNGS
Chain of Sho1, P40073 (P40073 287-367): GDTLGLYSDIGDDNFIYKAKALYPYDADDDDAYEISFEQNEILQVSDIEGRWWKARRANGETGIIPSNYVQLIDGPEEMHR
Chain of Rvs167, P39743 (P39743 419-482): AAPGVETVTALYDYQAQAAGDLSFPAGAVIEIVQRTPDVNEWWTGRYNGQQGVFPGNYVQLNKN

Binder | SPOT intensity (Abp1, P15891) | SPOT intensity (Bzz1-2, P38822) | SPOT intensity (Lsb4, P32793) | SPOT intensity (Fus1, P11710) | SPOT intensity (GST) | SPOT intensity (Myo5, Q04439) | SPOT intensity (Sla1-2, P32790) | SPOT intensity (Bud14, P27637) | SPOT intensity (Pex13, P80667) | SPOT intensity (Sla1-3, P32790) | SPOT intensity (Bbc1, P47068) | SPOT intensity (Hse1, P38753) | SPOT intensity (Bzz1-1, P38822) | SPOT intensity (Nbp2, Q12163) | SPOT intensity (Myo3, P36006) | SPOT intensity (Lsb1, P53281) | SPOT intensity (Hof1, Q05080) | SPOT intensity (Lsb3, P43603) | SPOT intensity (Pin3, Q06449) | SPOT intensity (Boi1, P38041) | further results
LKHGWKPLRPIKLIS | 75 | 1 | 4 | 4 | 0 | 0 | 0 | 8 | 17 | 16 | 14 | 147 | 0 | 2 | 0 | 0 | 0 | 0 | 3 | 0 | SPOT intensity (Cdc25, P04821): 14; SPOT intensity (Rvs167, P39743): 0; SPOT intensity (Boi2, P39969): 0; SPOT intensity (Bem1-2, P29366): 7; SPOT intensity (Bem1-1, P29366): 0; SPOT intensity (Sho1, P40073): 55; SPOT intensity (Cyk3, Q07533): 0
DKKTKPTPPPKPSHL | 410 | 0 | 0 | 0 | 0 | 0 | 1 | 1 | 4 | 0 | 0 | 4 | 1 | 0 | 0 | 0 | 3 | 24 | 0 | 3 | SPOT intensity (Cdc25, P04821): 1; SPOT intensity (Rvs167, P39743): 0; SPOT intensity (Boi2, P39969): 2; SPOT intensity (Bem1-2, P29366): 1; SPOT intensity (Bem1-1, P29366): 0; SPOT intensity (Sho1, P40073): 115; SPOT intensity (Cyk3, Q07533): 0
FPPKRKPLLRPQRSD | 232 | 28 | 81 | 6 | 2 | 0 | 1 | 19 | 16 | 25 | 266 | 51 | 0 | 9 | 30 | 69 | 4 | 48 | 19 | 6 | SPOT intensity (Cdc25, P04821): 27; SPOT intensity (Rvs167, P39743): 25; SPOT intensity (Boi2, P39969): 1; SPOT intensity (Bem1-2, P29366): 19; SPOT intensity (Bem1-1, P29366): 1; SPOT intensity (Sho1, P40073): 154; SPOT intensity (Cyk3, Q07533): 3

The next lines start with results.

SPOT intensity (Abp1, P15891) | SPOT intensity (Bzz1-2, P38822) | SPOT intensity (Lsb4, P32793) | SPOT intensity (Fus1, P11710) | SPOT intensity (GST) | SPOT intensity (Myo5, Q04439) | SPOT intensity (Sla1-2, P32790) | SPOT intensity (Bud14, P27637) | SPOT intensity (Pex13, P80667) | SPOT intensity (Sla1-3, P32790) | SPOT intensity (Bbc1, P47068) | SPOT intensity (Hse1, P38753) | SPOT intensity (Bzz1-1, P38822) | SPOT intensity (Nbp2, Q12163) | SPOT intensity (Myo3, P36006) | SPOT intensity (Lsb1, P53281) | SPOT intensity (Hof1, Q05080) | SPOT intensity (Lsb3, P43603) | SPOT intensity (Pin3, Q06449) | SPOT intensity (Boi1, P38041) | Binder | further results
766 | 2660 | 768 | 1230 | 446 | 624 | 550 | 480 | 567 | 2730 | 1050 | 1130 | 2630 | 1390 | 461 | 636 | 5260 | 591 | 694 | 1450 | AKDLIVPRRPEWNEG | SPOT intensity (Cdc25, P04821): 347; SPOT intensity (Rvs167, P39743): 1950; SPOT intensity (Boi2, P39969): 1640; SPOT intensity (Bem1-2, P29366): 5580; SPOT intensity (Bem1-1, P29366): 3920; SPOT intensity (Sho1, P40073): 1570; SPOT intensity (Cyk3, Q07533): 2720
631 | 0 | 5 | 2 | 0 | 0 | 0 | 1 | 266 | 1 | 1 | 11 | 0 | 1 | 0 | 0 | 3 | 75 | 0 | 0 | TKPTPPPKPSHLKPK | SPOT intensity (Cdc25, P04821): 2; SPOT intensity (Rvs167, P39743): 0; SPOT intensity (Boi2, P39969): 0; SPOT intensity (Bem1-2, P29366): 0; SPOT intensity (Bem1-1, P29366): 0; SPOT intensity (Sho1, P40073): 199; SPOT intensity (Cyk3, Q07533): 1
303 | 46 | 1 | 36 | 6 | 1 | 2 | 33 | 18 | 36 | 160 | 187 | 0 | 66 | 24 | 0 | 14 | 2 | 34 | 11 | NMLKKKPLKKPLKRF | SPOT intensity (Cdc25, P04821): 68; SPOT intensity (Rvs167, P39743): 0; SPOT intensity (Boi2, P39969): 1; SPOT intensity (Bem1-2, P29366): 30; SPOT intensity (Bem1-1, P29366): 0; SPOT intensity (Sho1, P40073): 228; SPOT intensity (Cyk3, Q07533): 2
